# Article PMC4336573 (2015)
# T1: Histone H3 K27me3 peptide H3K27me3 peptide (Homo sapiens, UniProt P68431, K27 trimethylation (H3))
# T1 chain: QLATKAARKSAPATGGV
# Target: T1, Histone H3 K27me3 peptide H3K27me3 …
# Experiment: fluorescence anisotropy
binder,measurement,value
CBX7 chromodomain (protein) FAVESIRKKRVRKGKVEYLVKWKGWPPKYSTWEPEEHILDPRLVMAYEEKEERDRASGY,Kd,27.7 µM
